Source: patent US9474783B2, “HIP/PAP protein and derivatives thereof for use in treating cancer” (priority 2012, dated 2016)

What was measured:
MCF7 cells = assay: In vitro mammary cancer cell line growth (cell density, optical density); type: cell-based, Human
Protocol: (§1) The MCF7 (Human breast adenocarcinoma) and PANC1 (Human pancreatic carcinoma, epithelial-like cell line) cell lines were obtained from LGC-Promochem ATCC.
(§2) Sub-confluent cultures (70-80%) were split using Trypsin/EDTA and collected in serum free culture medium. Cell concentration was determined using Trypan blue staining and a Mallasez counting chamber.
(§3) Briefly, 1,000 cells per well were seeded in 96 well-plates. Cells were maintained in DMEM medium complemented with 1% antibiotics (P/S), and cultured in a humidified atmosphere at 37° C. and 5% CO2.
(§4) Cells were maintained in culture for 1 to 3 days (1 plate for each day of analysis). For control of cell survival/growth and validation of the experiments, equivalent cultures were performed in the presence of Foetal calf serum (5%).
(§5) The effect of increasing concentrations of ALF-5755 ranging from 0 to 2000 ng/ml was investigated over time up to 72 hours. Results for the optimal concentration (2000 ng/mL) only are presented below.
(§6) For each time point (24, 48, and 72 hours), 60 minutes prior to cell proliferation measurement, each plate received 10 μL of cell proliferation reagent per well.
(§7) The absorbance of the samples was measured against a background control using a 96-well plate reader at 450 nm with a reference wavelength of 690 nm.
(§8) Raw data are expressed as optical density.
(§9) Two-way ANOVA were performed to study ALF-5755 concentration incidence on cell growth and cell growth over time for each condition of culture (+/−ALF-5755 and +/−doxorubicin). Post-hoc Bonferroni were applied to reveal effects of ALF-5755 concentration at each time point, if any.

PANC1 cells = assay: In vitro pancreatic cancer cell line growth (cell density, optical density); type: cell-based, Human
Protocol: as §1, §2, §3, §4, §5, §6, §7, §8, §9

[1] = tested on: DHDK12 cells (liver metastases of colorectal cancer); assay: In vivo model of liver metastases of colorectal cancer (tumor area after partial hepatectomy); set-up: species or system BDIX rat; conditions: 0.5 mg/kg single injection; for ratio of tumor liver area to total liver area: 14 days after treatment
Protocol: DHDK12 cell line was derived from liver metastatic cells developed by BDIX rats after 1,2-Dimethylhydrazine) intoxication (chemically-induced cancer). Therefore, all experiments were performed in BDIX rat, the syngenic corresponding strain.
Cells were expanded in vitro in a medium composed of 50% DMEM and 50% F12 (Invitrogen Gibco, Pailsey, GB) complemented with foetal calf serum (10%) and a combination of antibiotics (1% penicillin/streptomycin). Absence of mycoplasm contamination was controlled.
At day 1 of the experiment, rats were anesthetized with isofluran gas. After laparotomy they received 20 millions of DHDK12 cells.
At day seven after the injection of cancerous cells, when the tumor was already implanted, two types of hepatectomies were performed: either 30% or 70% of the liver was resected.
The control group was composed of animals receiving either the equivalent volume of vehicle or no injection.
Fourteen days after hepatectomy and treatment, animals were sacrificed. Serial sections of complete liver were performed for each animal (millimetric sections, the number of sections depending on the liver size and morphology). The tumor expansion was assessed by quantifying in square pixels (pixel^2) the area of each cancer cells nodule. The complete area of each section was also recorded and a ratio of the nodule/total area was calculated. Analyses were performed with Adobe Photoshop CS3 software.
Depending on the experiment, one-tailed t-test or two-tailed Mann-Whitney tests were performed to quantify the effect of ALF-5755 on nodule expansion. Area of nodules was expressed as a percentage of total liver area.

[2] = tested on: PyMT cells (primary mammary carcinoma); assay: In vivo model of primary mammary cancer (tumor weight, survival)
Protocol: PyMT (Polyoma middle T) cell line was derived from a primary mammary carcinoma induced by PyMT oncogene activation in FBV mice. Therefore, all experiments were performed in FBV mice, the syngenic corresponding strain.
PyMT mice were sacrificed at 12/13 weeks when presenting a large tumoral mass. The tumour was dissected and cells were dissociated mechanically in DMEM/Glutamax medium and then filtrated. Dead cells were eliminated by centrifugation then viable cells were frozen in aliquots. For tumour implantation in FBV mice, appropriate number of aliquots cells was thawn.
At day 1 of the experiment, female mice received 1 million of PyMT cells, within the 8th mammal in the adipose tissue. Cells were injected as a solution in PBS (0.05 ml total pre-warmed at 37° C.).
Alzet pumps were implanted in the back of the mice, at the time of PyMT cell injection (experiment 1) or after tumor implantation, when doxorubicin treatment started (experiment 2). The pumps continuously delivered either 43.2 μg of ALF-5755 or vehicle per day for a period of 28 days.
Animals started to receive doxorubicin at the time when tumor was detected (15 days after PyMT cells injection for both, ALF-5755 and Vehicle groups) by intra-tumor injection. Animals receive during four weeks, a weekly dose of 1 mg/kg that was known to induce tumor cell-death.
At the end of doxorubicin treatment (6 weeks after the beginning of the procedure), animals were sacrificed.
The weight of the tumors was compared between the two groups by mean of non-parametric one tailed Mann whitney test. Survival was compared by mean of one-tailed exact Fischer test.

Molecule | EC50 (MCF7 cells; Homo sapiens, MCF7 cells at 24H) | reduction of the growth of MCF7 cancerous cells (MCF7 cells; doxorubicin 75 μM, 24 hours post-plating, maintained at 72 hours) | EC50 (PANC1 cells; Homo sapiens, PANC-1, PANC1 cells at 72H) | reduction of the cell growth (PANC1 cells; doxorubicin 2.5 μM, effective at 48 hours post-plating, maintained at 72 hours) | ratio of tumor liver area to total liver area ([1]; after 30% partial hepatectomy, control ratio 0.14) | decrease of tumor/total liver area ratio versus controls ([1]; after 30% partial hepatectomy, versus non-injected controls, p=0.022) | ratio of tumor liver area to total liver area ([1]; after 70% partial hepatectomy, control ratio 0.29) | decrease of tumor/total liver area ratio versus controls ([1]; after 70% partial hepatectomy, versus vehicle, p=0.0026) | maximum additional reduction in cell density in combination to doxorubicin (MCF7 cells; ALF-5755 2000 ng/mL + doxorubicin 75 μM versus doxorubicin alone, 72 hours) | influence on the doxorubicin effect on cell density (MCF7 cells; ALF-5755 at any of the tested concentrations (0 to 2000 ng/ml) with doxorubicin 75 μM) | deaths during the experiment ([2]; exp 1, ALF-5755 infusion with doxorubicin, n=3) | tumor weight at day 45 after implantation ([2]; exp 1, infusion 43.2 μg per day for 28 days from implantation, with weekly intra-tumor doxorubicin, control 1.1±0.2 g, P=0.059) | deaths during the course of the experiment ([2]; exp 2, doxorubicin treated animals (1 mg/kg weekly intra-tumor for 4 weeks), same as group without doxorubicin) | deaths during the experiment, in total ([2]; exp 2, groups with and without doxorubicin pooled, n=14, placebo 6 of 14 died, P=0.008) | deaths during the course of the experiment ([2]; exp 2, infusion 43.2 μg per day for 28 days from tumor detection, group without doxorubicin, placebo 3 of 7 died) | additional decrease of cell density in combination to doxorubicin (PANC1 cells; ALF-5755 2000 ng/mL + doxorubicin 2.5 μM versus doxorubicin alone, 24 hours post-plating)
COc1cccc2c1C(=O)c1c(O)c3c(c(O)c1C2=O)C[C@@](O)(C(=O)CO)C[C@@H]3O[C@H]1C[C@H](N)[C@H](O)[C@H](C)O1 [doxorubicin, reference compound] | 75 µM | about 50% | 2.5 µM | about 50% | – | – | – | – | – | – | – | – | – | – | – | –
ALF-5755 (protein, listed as Homo sapiens) MEEPQRELPSARIRCPKGSKAYGSHCYALFLSPKSWTDADLACQKRPSGNLVSVLSGAEGSFVSSLVKSIGNSYSYVWIGLHDPTQGTEPNGEGWEWSSSDVMNYFAWERNPSTISSPGHCASLSRSTAFLRWKDYNCNVRLPYVCKFTD | – | – | – | – | 0.05 | about 60% | 0.15 | about 50% | 33% | did not compromise the doxorubicin effect | no death observed | 0.63 ± 0.12 g | exact same result | none | no death was observed | up to 22%
